Test results as given in doi:10.64898/2025.12.19.695423.

Molecular target: Huntingtin Exon 1 with 44 glutamines (HttEx1Q44) amyloid fibrils
Test: MST

K app with FP20: 170 nM
Kd: 0.46 µM
Substance: E3 ubiquitin ligase CHIP (from UniProt Q9UNE7 1-303) (enzyme)
